Entries after “also recorded” stand apart in the source; their conditions may differ.
B1: AM3-523: affinity matured CXCR4 i-body, SEQ ID NO: 56 (protein)
chain: LQVDIVPSQGEISVGESKFFLCQVAGSGSHMRISWFSPNGEKLTPNQQRISVVWNDDSSSTLTIYNANIDDAGIYKCVVWVGGYRHRALVLGEATVNVKIFQ
modifications: protein sequence encoding AM3-523

What was measured:
Ramos tumor cells [1] = test: MTT cell proliferation assay; format: cell-based, human; conditions: 24 to 72 hrs, AM3-114 at 10 μM
Protocol: The ability of the CXCR4 molecules or polypeptides disclosed herein (i-bodies) to inhibit proliferation of Ramos tumor cells, a human Burkitt's lymphoma cell line expressing CXCR4 mentioned above, in vitro was examined in a MTT cell proliferation assay as described in (Lapteva (2005) Cancer Gene Therapy 12, 84-89). Cells were grown in a 96-well tissue culture plate and treated with a vehicle or the anti-CXCR4 body. The cells were then incubated with the MTT solution for approximately 4 hours. After this incubation period, a water-insoluble formazan dye is formed. After solubilization, the formazan dye is quantitated using a scanning multi-well spectrophotometer (ELISA reader).

Ramos tumor cells [2] = test: Apoptosis assay (annexin V / propidium iodide flow cytometry); format: cell-based, human; conditions: annexin V and propidium iodide double positive, 24 or 72 hours
[3] = system: white blood cells, LSK and LSKSLAM cells in peripheral blood; test: Stem cell mobilisation in mice after i.v. injection; format: in vivo, mouse; conditions: 1 and 3 hours after i.v. injection, compared to AMD3100
Protocol: After 1 and 3 hours, mice were euthanized and peripheral blood (PB) harvested. Spleens were harvested and weighed to assess for splenomegaly (enlargement of the spleen). Samples were lysed to remove red blood cells and 4000 cells plated for LPP (low-proliferative potential) and CFU-HPP (colony forming unit-high proliferative potential) colonies (colony counting 7 days post-plating). The remaining cells were stained with an antibody cocktail to assess lineage-committed, stem and progenitor cell content. Flow cytometric analysis was used to calculate numbers of lineage-committed cells, haemopoietic stem and progenitor cells as well as enriched HSC per volume of PB.

[4] = system: human CD34+ stem and progenitor cells; test: Mobilisation of human CD34+ cells in humanised NSG mice; format: in vivo, humanized NODSIL2Rγ (NSG) mice; conditions: humanised NSG mouse model, compared to AMD3100
Protocol: To acquire evidence of mobilisation of human CD34^+ stem and progenitor cells using CXCR4 i-bodies, the above mobilisation experiment was conducted in humanized NODSIL2Rγ (NSG) mice. NSG mice are severely immunodeficient and lack mature T cells, B-cells and NK cells and have severely defective innate immunity, which allows engraftment of human cells without subsequent rejection. NSG mice were transplanted with freshly sorted CD34^+ cord blood cells and upon confirmation of positive human CD45/CD34 engraftment (˜4-5 weeks) were used as a mouse model for human stem cell mobilisation.
Mobilised peripheral blood was harvested and assessed for CD34^+ (human stem and progenitors).

[5] = Murine air pouch model with SDF-1; format: in vivo, BALB/c mice; conditions: intraperitoneal, 30 minutes before SDF-1 6 μg
Protocol: The ability of i-bodies to block inflammation was evaluated in an in vivo murine air pouch model. The subcutaneous (s.c.) air pouch is an in vivo model used to study acute and chronic inflammation (Durate et al, Models of Inflammation: Carrageenan Air Pouch, Current Protocols in Pharmacology 5.6.1-5.6.8, March 2012). Injection of irritants into an air pouch in rats or mice induces an inflammatory response that can be quantified by the volume of exudate produced, the infiltration of cells, and the release of inflammatory mediators. An air pouch, is generated by injection of sterile air under the skin of the back of the mouse. […] Air pouch lavage fluid is then analyzed for cell trafficking and cytokine release.
The air pouch assay was performed on 7-week-old BALB/c mice. On days 1 and 3, 0.2 ml/g initial body weight (IBW) of sterile air was injected under the back skin to create the pouch. […] Thirty minutes later, SDF-1 (6 μg) was injected into the pouch. Four hours later, the mice were killed in a CO2 chamber and the air pouch was washed. Cells were collected, counted, and characterized by flow cytometry.

[6] = Bleomycin mouse model of pulmonary fibrosis; format: in vivo
Procedure, shortened: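 Mice received bleomycin 2 U/mouse, with i-body dosed just before; at day 4, BAL SDF-1, lung fibrocytes (CD45+ CXCR4+ Collagen1+ by flow cytometry of collagenase/dispase suspensions), Sircol collagen staining and Col-1, Col-3, SDF-1 RNA were assessed. A separate 21-day bleomycin study tested PEGylated i-body.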

[7] = system: Human platelet rich plasma; test: SDF-1α induced platelet aggregation; format: cell-based; conditions: 10 or 20 ug/mL, 100 nM SDF-1 alpha
Protocol: Experiments were carried out to examine whether the i-bodies could block platelet aggregation induced by SDF-1α. […] In the presence of negative control i-body 21H5 (or the isotype control for 12G5: mouse IgG2a). SDF-1 induced a robust and reproducible aggregation (the descending black curves, which indicate an increase in light transmission), which matches with what has been previously published.

Row | Molecule | growth of RAMOS cells (Ramos tumor cells [1]) | induction of apoptosis in Ramos cells (Ramos tumor cells [2]) | mobilisation of white blood cells [3] | mobilisation of human CD34+ stem cells [4] | cell migration / leukocyte infiltration into the air pouch [5] | collagen content of the lung (Sircol) ([6]; 30 mg/kg) | recruitment of fibrocytes into the lungs ([6]; 30 mg/kg, day 4, CD45+ CXCR4+ Col 1+ cells) | blocking of SDF-1α induced platelet aggregation [7] | recruitment of fibrocytes into the lungs ([6]; 1 mg/Kg, day 4) | recruitment of fibrocytes into the lungs ([6]; day 4, dose not given)
1 | AM3-114: affinity matured CXCR4 i-body, SEQ ID NO: 40 | substantially inhibit the growth | induced apoptosis | No mobilisation | do not mobilise stem cells | inhibiting leukocyte infiltration; also recorded: inhibited cell migration | reduced the collagen content | dramatically attenuate | most effective; also recorded: most efficient |  | 
2 | B1 | no observable effect | induced apoptosis | No mobilisation | do not mobilise stem cells | inhibiting leukocyte infiltration; also recorded: inhibited cell migration | reduced the collagen content |  | blocked aggregation to the same extent as the MAb12G5 | block recruitment of fibrocytes | significantly attenuate

Source: patent US11142588B2, “Polypeptides which bind C-X-C chemokine receptor type 4 (CXCR4) and methods of treating or reducing the risk of fibrosis and cancer” (AdAlta Limited, priority 2015, dated 2021)
